Values joined by “and” are separate entries in the source; they are usually repeats but may differ in a detail not shown here. Identical values can stand only once.
How the values were obtained:
Test in all cases: cell-based or functional assay
[1] = biological target: (GFP S10 A10)-L1-NdeI::HPS::BamH1-L2-(GFP S11 SM5) (Pyrobaculum aerophilum)
[2] = biological target: (GFP S10 SM5)-L1-sulfite reductase-L2-(GFP S11 SM5) (Pyrobaculum aerophilum)
[3] = biological target: (GFP S10)-L1-sulfite reductase-L2-(GFP S11) (Pyrobaculum aerophilum)
[4] = biological target: sulfite reductase-GFP S10-11 OPT fusion protein (Pyrobaculum aerophilum; Aequorea victoria)

(GFP S10 A10)-L1-NdeI::HPS::BamH1-L2-(GFP S11 SM5) (Pyrobaculum aerophilum), sequence (main, as listed by the source): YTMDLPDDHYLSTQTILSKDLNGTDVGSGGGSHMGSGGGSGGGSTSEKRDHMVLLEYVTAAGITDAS
(GFP S10 SM5)-L1-sulfite reductase-L2-(GFP S11 SM5) (Pyrobaculum aerophilum), sequence (main, as listed by the source): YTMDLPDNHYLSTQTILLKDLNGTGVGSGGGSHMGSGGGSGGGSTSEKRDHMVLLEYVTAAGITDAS

**Q.** With GFP 1-9 OPT (from UniProt P42212 1-197) as the substance, how does the complementation signal relative to detection with GFP 1-10 OPT [1] read?
**A.** 0.2 and 0.25

**Q.** What about the complementation rate [2] of the same substance?
**A.** 20 fold

**Q.** And the complementation efficiency relative to the C-terminal GFP S11 M3 + GFP 1-10 OPT format [3]?
**A.** 0.033

**Q.** What about the tagged fragment concentration at which complementation fluorescence plateaus, with limiting 2.5 µM GFP 1-9 OPT [4] of the same substance?
**A.** > 2.5 µM

From patent publication US20050221343A1
